This note sets out measurements from patent publication US20210040194A1.

Holding throughout (test): cell-based or functional assay
One experiment has as its target cyno Ang2 (cyno).
In another experiment the target is mouse Ang2 (mouse) (UniProt O35608).
Experiment [1] addresses Human ANG-2 (huAng2) (human) (UniProt O15123).

Sequence of mouse Ang2 (mouse) (O35608 19-496 limits assumed): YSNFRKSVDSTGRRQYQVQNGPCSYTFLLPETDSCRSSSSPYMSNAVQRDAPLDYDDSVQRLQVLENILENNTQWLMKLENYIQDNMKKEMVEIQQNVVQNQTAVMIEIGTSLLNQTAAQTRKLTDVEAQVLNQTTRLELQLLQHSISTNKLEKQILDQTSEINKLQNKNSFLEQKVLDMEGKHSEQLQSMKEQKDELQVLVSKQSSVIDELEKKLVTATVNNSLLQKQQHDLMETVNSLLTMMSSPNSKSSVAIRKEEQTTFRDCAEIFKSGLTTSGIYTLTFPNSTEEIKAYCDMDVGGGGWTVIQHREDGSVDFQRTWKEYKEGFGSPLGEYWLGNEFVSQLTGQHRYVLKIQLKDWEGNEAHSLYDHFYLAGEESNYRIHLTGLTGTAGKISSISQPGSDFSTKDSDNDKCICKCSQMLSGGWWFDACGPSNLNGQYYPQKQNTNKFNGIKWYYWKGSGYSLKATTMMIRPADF
Sequence of Human ANG-2 (huAng2) (human) (O15123 19-496 limits assumed): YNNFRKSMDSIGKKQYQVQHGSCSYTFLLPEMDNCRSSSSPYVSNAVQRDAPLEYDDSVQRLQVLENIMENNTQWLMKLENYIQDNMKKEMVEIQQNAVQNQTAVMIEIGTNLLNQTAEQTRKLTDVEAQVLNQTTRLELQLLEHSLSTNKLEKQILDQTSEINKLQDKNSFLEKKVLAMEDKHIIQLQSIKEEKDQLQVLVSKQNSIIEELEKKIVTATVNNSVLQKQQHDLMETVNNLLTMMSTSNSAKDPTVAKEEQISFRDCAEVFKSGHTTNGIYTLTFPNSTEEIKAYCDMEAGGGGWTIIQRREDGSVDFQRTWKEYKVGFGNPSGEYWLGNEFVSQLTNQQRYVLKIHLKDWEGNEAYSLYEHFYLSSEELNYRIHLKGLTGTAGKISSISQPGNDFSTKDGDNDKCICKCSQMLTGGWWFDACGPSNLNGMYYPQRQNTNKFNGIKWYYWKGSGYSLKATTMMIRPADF

Turning to MEDI3617 (antibody), the Cyno pTie2 EC50 (nM) with cyno Ang2 (cyno) worked out at 33.2 nM. In the experiment with mouse Ang2 (mouse), this substance displayed a Mu pTie2 EC50 (nM) of 137 nM. In experiment [1], this substance registered a Hu pTie2 EC50 (nM), Hek293-Tie2 cells of 2.65 nM.
